Tests used:
[1] = In vitro transcribed and translated UGTs incubated with rubusoside, LC-MS; type: biochemical
Method: (§1) EUGT11 was produced by in vitro transcription and translation, and incubated with various substrates in the RebD pathway. Similar experiments were carried out using in vitro transcribed and translated UGT91D2e. […] Compounds 1-3 were identified solely by mass and expected retention time. The numbers shown in FIG. 3 are the average peak height of the indicated steviol glycoside obtained from a LC-MS chromatogram, and, although not quantitative, can be used to compare the activity of the two enzymes. […] Both enzymes were able to convert steviol 19-O-monoglucoside (SMG) to compound 1, with EUGT11 being about ten times more efficient than UGT91D2e at converting 19-SMG to compound 1.
The left panel of FIG. 5 contains LC-MS chromatograms of the conversion of rubusoside to stevioside. The right panel of FIG. 5 contains chromatograms of the conversion of rubusoside to stevioside, to compound 2, and to compound 3 (RebE). Conversion of rubusoside to compound 3 requires two consecutive 1, 2-O-glycosylations at the 19- and 13-positions of steviol.

[2] = In vitro transcribed and translated UGTs incubated with steviol, LC-MS; type: biochemical
Method: as §1

[3] = Enzyme kinetics with RebA as substrate; type: biochemical; settings: Reb A
Method: (§2) A series of experiments were performed to determine kinetic parameters of EUGT11 and 91D2e-b. For both enzymes, 100 μM RebA, 300 μM UDP-glucose, and 10 U/mL Alkaline Phosphatase (Fermentas/Thermo Fisher, Waltham, MA) were used in the reactions. For EUGT11, the reactions were performed at 37° C. using 100 mM Tris-HCl, pH 7, and 2% enzyme. For 91D2e-b, the reactions were performed at 30° C. using 20 mM Hepes-NaOH, pH 7.6, 20% (by volume) enzyme. The initial velocities (V0) were calculated in the linear range of a product versus time plot.
To first investigate the linearity intervals, initial time-courses were done for each enzyme. EUGT11 was assayed at 37° C. for 48 h at initial concentrations of 100 μM RebA and 300 μM UDP-glucose. UGT91D2e-b was assayed at 37° C. for 24 h at initial concentrations of 200 μM RebA and 600 μM UDP-glucose. Based on these range-finding studies, it was determined that the initial 10 minutes in the case of EUGT11, and the initial 20 minutes in UGT91D2e-b would be in the linear range with respect to product formation, and therefore initial velocities of each reaction were calculated in those intervals. In the case of EUGT11, RebA concentrations assayed were 30 μM, 50 μM, 100 μM, 200 μM, 300 μM and 500 μM. Concentration of UDP-glucose was always three times the concentration of RebA and incubation was performed at 37° C. By plotting the calculated V0 as a function of the substrate concentrations, Michaelis-Menten curves were generated. By plotting the reciprocal of V0 and the reciprocal of [S], a Lineweaver-Burk graphic was obtained, with y=339.85x+1.8644; R^2=0.9759.
(§3) Vmax and KM parameters were determined from the curve-fit Lineweaver-Burk data, calculated from the x- and y intercepts (x=0, y=1/Vmax) and (y=0, x=−1/KM). Additionally, the same parameters also were calculated by a non-linear least squares regression, using the SOLVER function in Excel. The results obtained with both methods for EUGT11 and RebA are presented in Table 12, along with all the kinetic parameters of this example. Kcat is calculated based on Vmax divided by the approximate amount of protein in the assay.
(§4) In the case of UGT91D2e-b, RebA concentrations assayed were 50 μM, 100 μM, 200 μM, 300 μM, 400 μM and 500 μM. Concentration of UDP-glucose was always three times the concentration of RebA and incubation was performed at 30° C., in the reaction conditions described above for UGT91D2e-b. Additionally, kinetic parameters of UGT91D2e-b towards UDP-glucose were determined. UGT91D2e-b was incubated with increasing amounts of UDP-glucose (30 μM, 50 μM, 100 μM, and 200 μM), maintaining an excess of RebA (1500 μM). incubation was performed at 30° C., in optimal conditions for UGT91D2e-b.

[4] = In vitro transcribed and translated UGTs incubated with 19-SMG, LC-MS; type: biochemical; settings: average LC-MS peak height, not quantitative
Method: as §1

[5] = Denaturation temperature by differential scanning calorimetry (DSC); type: physicochemical; settings: 6HIS-purified enzymes, 91D2e-b GST-purified
Method: To assess the thermal stability of EUGT11 and to compare it with the other UGTs in the steviol glycosylation pathway, denaturation temperatures of the proteins were determined using differential scanning calorimetry (DSC). Use of DSC thermograms to estimate denaturation temperatures, TD, is described, for example, by E. Freire in Methods in Molecular Biology 1995, Vol. 40 191-218. DSC was performed (using 6HIS-purified EUGT11, yielding an apparent TD of 39° C.; while when GST-purified 91D2e-b was used, the measured TD was 79° C. For reference, the measured TD when using 6HIS-purified UGT74G1, UGT76G1 and UGT85C2 was 86° C. in all cases. One of skill in the art will recognize that enzyme immobilization or addition of thermal protectants can be added to the reactions to improve stability of the protein. Non-limiting examples of thermal protectants include trehalose, glycerol, ammonium sulphate, betaine, trimethylamine oxide, and proteins.

[6] = Enzyme kinetics with UDP-glucose as substrate; type: biochemical
Method: as §2, §3
In order to investigate the influence of UDP-glucose concentration in the glycosylation reaction, as well as the affinity of EUGT11 for UDP-glucose, similar kinetics analysis were performed. EUGT11 was incubated with increasing amounts of UDP-glucose (20 μM, 50 μM, 100 μM, and 200 μM), maintaining an excess of RebA (500 μM).
as §4

[7] = In vitro transcribed and translated UGTs incubated with RebA and UDP-glucose, LC-MS; type: biochemical
Method: In vitro transcription and translation of these genes was performed, and the resulting UGTs incubated with RebA and UDP-glucose. Following incubation, the reactions were analyzed by LC-MS. […] See LC-MS chromatograms in FIG. 4. As shown in the left panel of FIG. 4, UGT91D2e produced a trace amount of RebD when RebA was used as the feedstock.
as §1
Both enzymes were able to convert RebA to RebD. However, EUGT11 was approximately 30 times better at converting RebA to RebD. Overall, it appears that EUGT11 produces more product than UGT91D2e in all reactions (with similar time, concentrations, temperature, and purity of enzyme) except the conversion of rubusoside to stevioside.

B1: EUGT11: UDP glycosyl transferase from Oryza sativa (GenBank AC133334), SEQ ID NO:152 (protein, listed as Oryza sativa)
chain: MDSGYSSSYAAAAGMHVVICPWLAFGHLLPCLDLAQRLASRGHRVSFVSTPRNISRLPPVRPALAPLVAFVALPLPRVEGLPDGAESTNDVPHDRPDMVELHRRAFDGLAAPFSEFLGTACADWVIVDVFHHWAAAAALEHKVPCAMMLLGSAHMIASIADRRLERAETESPAAAGQGRPAAAPTFEVARMKLIRTKGSSGMSLAERFSLTLSRSSLVVGRSCVEFEPETVPLLSTLRGKPITFLGLMPPLHEGRREDGEDATVRWLDAQPAKSVVYVALGSEVPLGVEKVHELALGLELAGTRFLWALRKPTGVSDADLLPAGFEERTRGRGVVATRWVPQMSILAHAAVGAFLTHCGWNSTIEGLMFGHPLIMLPIFGDQGPNARLIEAKNAGLQVARNDGDGSFDREGVAAAIRAVAVEEESSKVFQAKAKKLQEIVADMACHERYIDGFIQQLRSYKD
amount of compound 3 (RebE) produced from rubusoside [1]: significant amount
use of steviol as a substrate [2]: not able to use steviol as a substrate
Kcat ([3]; Lineweaver-Burk plot): 0.14 s⁻¹
Km ([3]; Lineweaver-Burk plot): 182 µM
Vmax ([3]; Lineweaver-Burk plot): 0.54 µM/min
Kcat ([3]; Nonlinear Least Square Fit): 0.135 s⁻¹
Km ([3]; Nonlinear Least Square Fit): 162 µM
Vmax ([3]; Nonlinear Least Square Fit): 0.52 µM/min
efficiency at converting 19-SMG to compound 1 compared with UGT91D2e [4]: about ten
denaturation temperature TD [5]: 39 °C
Kcat ([6]; Lineweaver-Burk plot): 0.202 s⁻¹
Km ([6]; Lineweaver-Burk plot): 118 µM
Vmax ([6]; Lineweaver-Burk plot): 0.78 µM/min
Kcat ([6]; Nonlinear Least Square Fit): 0.2053 s⁻¹
Km ([6]; Nonlinear Least Square Fit): 130 µM
Vmax ([6]; Nonlinear Least Square Fit): 0.79 µM/min
amount of RebD produced when RebA was used as the feedstock ([7]; LC-MS chromatograms, FIG. 4): significant amount
efficiency at converting RebA to RebD compared with UGT91D2e ([7]; in vitro transcribed and translated enzymes, preliminary quantification): approximately 30 times

Reference: patent US12416034B2, “Recombinant production of steviol glycosides” (EVOLVA SA, priority 2011, dated 2025)
